We go through 13 molecules from patent US20240116985A1 (published 2024).

Starred links: 1 amine or outer side, 2 acyl side, 3 side chain; linkers in the order of their positions; H or OH if unused. Positions of bridges follow the written chain, without caps; N, C: chain ends. Non-standard residues stand in square brackets, D forms with d. Primed or numbered codes have the meaning given here. PyrS2″ = (S)-3-amino-1-((pent-4-en-1-yloxy)carbonyl)pyrrolidine-3-carboxylic acid (stapling residue), C=CCCCOC(=O)N1CC[C@@](N[*:1])(C(=O)[*:2])C1; B5(23) = 2-amino-2-(pent-4-en-1-yl)hept-6-enoic acid (2,2-bis(4-pentenyl)glycine), stitching residue, C=CCCCC(CCCC=C)(N[*:1])C(=O)[*:2]; B5(4) = 2,2-bis(4-pentenyl)glycine = 2-amino-2-(pent-4-en-1-yl)hept-6-enoic acid (stitching residue), C=CCCCC(CCCC=C)(N[*:1])C(=O)[*:2]; TfeGA = (S)-2-amino-3-((carboxymethyl)(2,2,2-trifluoroethyl)amino)propanoic acid, O=C([C@H](CN(CC(=O)[*:3])CC(F)(F)F)N[*:1])[*:2]; B5(3) = 2,2-bis(4-pentenyl)glycine (stitching residue), C=CCCCC(CCCC=C)(N[*:1])C(=O)[*:2]; Phe(3-COOH) = N[C@@H](Cc1cccc(C(=O)O)c1)C(=O)O; Phe(3-F) = N[C@@H](Cc1cccc(F)c1)C(=O)O; Phe(4-F) = N[C@@H](Cc1ccc(F)cc1)C(=O)O; Bta = N[C@@H](Cc1csc2ccccc12)C(=O)O; αAllylPro = C=CC[C@@]1(C(=O)O)CCCN1; tBuAla = CC(C)(C)C[C@H](N)C(=O)O; 3Thi = N[C@@H](Cc1ccsc1)C(=O)O; S8 = C=CCCCCCC[C@](C)(N)C(=O)O; hSer = N[C@@H](CCO)C(=O)O

Assay [1] has as its target T1, B-cat-Halo (beta-catenin HaloTag NanoBRET construct expressed in HEK293 cells) (UniProt P35222 1-781).
T1 sequence (looked up): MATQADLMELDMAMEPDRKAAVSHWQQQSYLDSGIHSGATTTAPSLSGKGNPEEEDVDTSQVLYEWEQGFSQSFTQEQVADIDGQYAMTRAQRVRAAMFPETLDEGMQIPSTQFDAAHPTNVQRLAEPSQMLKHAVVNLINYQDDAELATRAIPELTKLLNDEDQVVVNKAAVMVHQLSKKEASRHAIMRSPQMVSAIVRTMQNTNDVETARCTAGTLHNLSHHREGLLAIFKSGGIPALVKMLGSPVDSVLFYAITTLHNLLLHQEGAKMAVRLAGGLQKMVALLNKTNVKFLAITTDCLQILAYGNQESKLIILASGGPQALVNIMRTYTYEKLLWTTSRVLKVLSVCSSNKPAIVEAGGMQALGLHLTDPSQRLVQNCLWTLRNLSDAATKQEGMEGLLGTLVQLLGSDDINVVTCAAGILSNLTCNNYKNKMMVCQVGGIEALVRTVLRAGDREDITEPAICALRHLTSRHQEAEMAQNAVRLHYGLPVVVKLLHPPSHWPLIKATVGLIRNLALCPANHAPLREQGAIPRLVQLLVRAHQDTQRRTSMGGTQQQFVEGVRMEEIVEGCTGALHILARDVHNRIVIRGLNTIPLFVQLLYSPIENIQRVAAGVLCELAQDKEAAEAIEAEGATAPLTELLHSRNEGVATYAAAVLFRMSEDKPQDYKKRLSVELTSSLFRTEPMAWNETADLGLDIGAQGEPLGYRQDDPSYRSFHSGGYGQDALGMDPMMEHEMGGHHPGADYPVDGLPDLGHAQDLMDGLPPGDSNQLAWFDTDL
The assay is described as follows: cell-based or functional assay.

Assay [2] concerns the target T2, full-length beta-Catenin (Uniprot ID P35222) (Homo sapiens (Human), UniProt P35222 2-781).
T2 construct: full-length; also called bCat; B-Catenin
T2 sequence: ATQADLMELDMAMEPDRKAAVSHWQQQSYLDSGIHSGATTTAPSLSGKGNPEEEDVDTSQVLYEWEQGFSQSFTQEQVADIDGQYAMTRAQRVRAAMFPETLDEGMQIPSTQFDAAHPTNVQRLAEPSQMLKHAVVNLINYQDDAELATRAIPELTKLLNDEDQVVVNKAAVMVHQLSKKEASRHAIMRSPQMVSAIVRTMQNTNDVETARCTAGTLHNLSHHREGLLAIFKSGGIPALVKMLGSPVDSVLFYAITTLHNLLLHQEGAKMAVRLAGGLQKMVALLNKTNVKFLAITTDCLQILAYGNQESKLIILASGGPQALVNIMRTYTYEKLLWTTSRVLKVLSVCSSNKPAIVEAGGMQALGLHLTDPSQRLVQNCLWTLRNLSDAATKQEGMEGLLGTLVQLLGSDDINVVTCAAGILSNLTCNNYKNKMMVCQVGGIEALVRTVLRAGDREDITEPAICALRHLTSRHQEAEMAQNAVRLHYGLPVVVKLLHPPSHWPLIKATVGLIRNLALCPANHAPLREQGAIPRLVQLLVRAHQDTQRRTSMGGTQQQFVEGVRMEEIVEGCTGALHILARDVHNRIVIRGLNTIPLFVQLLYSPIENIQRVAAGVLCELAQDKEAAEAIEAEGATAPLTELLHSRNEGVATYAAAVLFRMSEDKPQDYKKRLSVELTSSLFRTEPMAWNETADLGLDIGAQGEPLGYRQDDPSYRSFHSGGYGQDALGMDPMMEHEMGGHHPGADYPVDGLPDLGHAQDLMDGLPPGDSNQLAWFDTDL
As to the kind of experiment: fluorescence polarization competition; displaces 5FAM-TCF4(10-53) from full-length beta-catenin. The procedure:
(§1) The plate was incubated protected from light for 60 minutes at 20° C. prior to read. Reads were performed on a CLARIOstar plate reader (BMG Labtech) in duplicate, and data were fitted to a 1:1 binding model with hill slope using an in-house script. All provided concentrations are final concentrations.
On the technique in general: Polarisation of emitted light reports the rotation of a fluorescent probe.

Assay [3] addresses T3, B-cat-Halo (Homo sapiens (Human), UniProt P35222 1-781).
T3 sequence: T1 sequence (looked up)
The assay is described as follows: cell-based or functional assay.

The target in assay [4] is T4, full-length beta-Catenin (Uniprot ID P35222) (Homo sapiens (Human), UniProt P35222 1-781).
T4 construct: The assay protocols call it full-length; also called B-Catenin; bCat
T4 sequence: T1 sequence (looked up)
As to the kind of experiment: AlphaScreen competition; full-length beta-catenin with biotin-labelled TCF4 10-53 peptide as competitor. The procedure:
Equal volume of the titrated peptide was added to the plate and incubated for 15 minutes at 20° C. Then 4 uL of donor and 4 uL acceptor beads at 10 ug/mL were added to the plate, for a 16 uL reaction pool and protected from light for 60 minutes at 20° C. prior to read. Reads were performed on a CLARIOstar plate reader (BMG Labtech) in duplicate, and data were fitted to a 1:1 binding model with hill slope using an in-house script. All provided concentrations are final concentrations.
A general note: Bead proximity is the source of the signal in Alpha formats.

The target in assay [5] is T4, full-length beta-Catenin (Uniprot ID …). The assay is described as follows: fluorescence polarization competition; full-length beta-catenin with 5FAM-labelled TCF4 10-53 peptide as competitor. How it is done: as §1

B1: I-1544 (peptide)
peptide: XDSXDEAAFQXFXQ
modifications: not fully specified; N-terminal Ac; PL3 at 1, B5 at 4, S8 at 11 (staples PL3-B5 and B5-S8 by olefin metathesis); Hse at 3; BztA at 13; C-terminal NH2
notes: Stapled peptide composition; earlier eluting HPLC peak (staple isomer); also called Ac-PL3-Asp-Hse-B5-Asp-Glu-Ala-Ala-Phe-Gln-S8-Phe-BztA-Gln-NH2
What is called IC50 is the concentration that gives 50% inhibition. Low values mean greater potency in that assay, high ones weaker potency in that assay. B1: the “NanoBRET Abs IC50” value in assay [1] is above 20 µM. The same molecule showed an IC50 in assay [2] of 61 nM.

B2: I-1554 (peptide)
peptide: Ac-[αAllylPro]DK[B5(23)]DEAAF[hSer][S8]F[Bta]Q-NH2
modifications: staple 1-4, 4-11
notes: Stapled peptide composition; also called Ac-PL3-Asp-Lys-B5-Asp-Glu-Ala-Ala-Phe-Hse-S8-Phe-BztA-Gln-NH2
Turning to B2, the “NanoBRET Abs IC50” value in assay [1] is above 20 µM. In assay [2], this molecule gave an IC50 of 63 nM.

B3: I-1553 (peptide)
peptide: Ac-[αAllylPro]DK[B5(23)]DEAAFL[S8]F[Bta]Q-NH2
modifications: staple 1-4, 4-11
notes: Stapled peptide composition; also called Ac-PL3-Asp-Lys-B5-Asp-Glu-Ala-Ala-Phe-Leu-S8-Phe-BztA-Gln-NH2
On to B3, for which, in assay [1], the “NanoBRET Abs IC50” value was above 20 µM. In addition, the IC50 in assay [2] is 133 nM.

B4: I-2049 (peptide)
peptide: Ac-[αAllylPro]D[tBuAla][B5(3)]D[Phe(3-COOH)]NAFL[PyrS2″][3Thi][Bta]A-NH2
modifications: staple 1-4, 4-11
As for B4, the “NanoBRET Abs IC50” value in assay [3] was found to be 4.5 µM.

B5: I-262 (peptide)
peptide: XDAXDDAAFVXFWQ
modifications: not fully specified; N-terminal Ac; PL3 at 1; B5 at 4; S8 at 11; 34FF at 12; C-terminal NH2; staples PL3(1)-B5(4) and B5(4)-S8(11) by olefin metathesis
notes: Stapled (stitched) peptide; also called Ac-PL3-Asp-Ala-B5-Asp-Asp-Ala-Ala-Phe-Val-S8-34FF-Trp-Gln-NH2
As a reminder, the EC50 is the concentration at which the effect is half-maximal. A high value points to weaker potency. As to B5, the EC50 in assay [4] was 967 nM; in assay [5], 5 µM.

B6: I-2046 (peptide)
peptide: Ac-[αAllylPro]D[tBuAla][B5(3)]D[Phe(3-COOH)]AAFL[PyrS2″][3Thi][Bta]NAAA-NH2
modifications: staple 1-4, 4-11
As to B6, in assay [3], the “NanoBRET Abs IC50” value turned out to be 2.9 µM.

B7: I-260 (peptide)
peptide: Ac-[αAllylPro]DA[B5(4)]DDAAFV[S8][Phe(3-F)]WQ-NH2
modifications: staple 1-4, 4-11
notes: Stapled (stitched) peptide; also called Ac-PL3-Asp-Ala-B5-Asp-Asp-Ala-Ala-Phe-Val-S8-3FF-Trp-Gln-NH2
As for B7, the results for the EC50 in assay [4] and in assay [5] were 683 nM and 5 µM, respectively.

B8: I-286 (peptide)
peptide: XDAXDDAAFAXFWA
modifications: not fully specified; N-terminal Ac; PL3 at 1; B5 at 4; S8 at 11; C-terminal NH2; staples PL3(1)-B5(4) and B5(4)-S8(11) by olefin metathesis
notes: Stapled (stitched) peptide; also called Ac-PL3-Asp-Ala-B5-Asp-Asp-Ala-Ala-Phe-Ala-S8-Phe-Trp-Ala-NH2
As for B8, the EC50 in assay [4] was found to be 450 nM; in assay [5], 4.48 µM.

B9: I-285 (peptide)
peptide: XDAXDDAAFVXHWQ
modifications: not fully specified; N-terminal Ac; PL3 at 1; B5 at 4; S8 at 11; C-terminal NH2; staples PL3(1)-B5(4) and B5(4)-S8(11) by olefin metathesis
notes: Stapled (stitched) peptide; also called Ac-PL3-Asp-Ala-B5-Asp-Asp-Ala-Ala-Phe-Val-S8-His-Trp-Gln-NH2
Consider B9, for which the figures for the EC50 in assay [4] and in assay [5] were 246 nM and 5 µM, respectively.

B10: I-263 (peptide)
peptide: XDAXDDAAFVXFWQ
modifications: not fully specified; N-terminal Ac; PL3 at 1; B5 at 4; S8 at 11; 34FF at 12; C-terminal NH2; staples PL3(1)-B5(4) and B5(4)-S8(11) by olefin metathesis
notes: as for B5
For B10, the EC50 in assay [4] turned out to be 864 nM; in assay [5], 5 µM.

B11: I-2050 (peptide)
peptide: Ac-[αAllylPro]D[tBuAla][B5(3)]D[Phe(3-COOH)]SAFL[PyrS2″][3Thi][Bta]A-NH2
modifications: staple 1-4, 4-11
Consider B11, for which the “NanoBRET Abs IC50” value in assay [3] worked out at 4.9 µM.

B12: I-2048 (peptide)
peptide: Ac-[αAllylPro]D[tBuAla][B5(3)]D[TfeGA]AAFL[PyrS2″][3Thi][Bta]Q-NH2
modifications: staple 1-4, 4-11; not fully specified (residue 9)
Take B12: the “NanoBRET Abs IC50” value in assay [3] was 28.8 µM.

B13: I-261 (peptide)
peptide: Ac-[αAllylPro]DA[B5(4)]DDAAFV[S8][Phe(4-F)]WQ-NH2
modifications: staple 1-4, 4-11
notes: Stapled (stitched) peptide; also called Ac-PL3-Asp-Ala-B5-Asp-Asp-Ala-Ala-Phe-Val-S8-4FF-Trp-Gln-NH2
With B13, the EC50 in assay [4] is 347 nM; in assay [5] it was 5 µM.
